“Also recorded” adds a separate entry of the source. Bridge positions count the residues as written; N and C are the ends. Ends that are not written are not given here. Peptide text beside a SMILES is read from it. * marks the point of attachment. NOTA = O=C(O)CN1CCN(CC(=O)O)CCN(CC(=O)*)CC1
Experiments:
physchem = experiment: physchem
Protocol: (§1) Analytical radio-HPLC chromatograms were obtained using an Agilent 1200 series instrument equipped with a flow-ram detector (Lablogic, Sheffield, UK), and integrated using Laura 6 software (Lablogic, Sheffield, UK). Column: phenomenex Aeris^TM 3.6 µm WIDEPORE C4 200 Å. Mobile phase: 0.1% TFA H2O:MeCN 95:5 v/v to 5:95 v/v, 0.8 mL/min flow rate.
(§2) A fraction of purified [^18F]AlF-EMP-105 (10 MBq in ~10 µL EtOH) was incubated, respectively, in 1000 µL of EtOH, PBS, RPMI, human serum and EDTA (0.02% in 0.5 mM DPBS) at 37 °C, and analysed by RP-HPLC at 1, 2, 3, and 4 h time points. For stability towards radiolysis, aliquots of >2 GBq of purified [^18F]AlF-EMP-105 eluted from the cartridge in ethanol (75% in 10 mM H3P0_4) or formulated in PBS solution containing 7.5% ethanol and 5 mg/mL (10 mL) of 4-aminobenzoic acid (PABA) as radioprotectant were analysed by RP-HPLC.

in vitro = conditions: human, human serum
Protocol: as §1, §2

H1975 [1] = experiment: In vitro radioactive uptake with and without EMI-137 blocking; assay type: cell-based; conditions: ~0.74 MBq, 60 min, 37 °C, gamma counting, mean ± SEM
Protocol: (§3) H1975 (non-small cell lung cancer), HEPG2a (hepatocellular carcinoma), HT29 (colorectal cancer) were purchased from ATCC. OE21 (oesophageal squamous cell carcinoma) was obtained from Prof George Hanna. H1975 and OE21 cells were maintained in RPMI-1640 media (Sigma-Aldrich) supplemented with 10% fetal calf serum (Sigma-Aldrich), 1% L-glutamine, and 2% penicillin/streptomycin (Sigma-Aldrich). HEPG2a and HT29 cells were cultured in DMEM (Sigma-Aldrich) containing 10% fetal calf serum, 1% L-glutamine, and 2% penicillin/streptomycin. All cell lines were cultured at 37 °C and 5% CO2.
(§4) Cells were seeded at appropriate densities (~500,000 cells/well in a 6-well plate) and allowed to attach overnight. On the day of uptake, cells were washed three times with warm PBS and incubated with 1 mL of fresh media containing approximately 0.74 MBq of [^18F]AlF-EMP-105, with or without 100× molar equivalent of EMI-137 (blocking compound), in a humidified condition with 5% CO2 at 37 °C for 60 min. After 60 min of incubation, the cells were washed with ice-cold PBS (3 times), then lysed in 1 mL of RIPA buffer for 10 min on ice. Following this step, radioactivity from 800 µL of lysate from each sample was counted on a WIZARD2® Automatic Gamma Counter. To determine the specificity of uptake, data were expressed as a percentage of radioactivity incorporated into cells, in untreated cells compared to cells blocked with EMI-137.

HEPG2a [2] = experiment: as above; assay type: cell-based; conditions: HEPG2a (negative control); ~0.74 MBq, 60 min, 37 °C; gamma counting; mean ± SEM
Protocol: as §3, §4

HT29 [3] = experiment: as above; assay type: cell-based; conditions: ~0.74 MBq, 60 min, 37 °C, gamma counting, mean ± SEM
Protocol: as §3, §4

OE21 [4] = experiment: as above; assay type: cell-based; conditions: ~0.74 MBq, 60 min, 37 °C, gamma counting, mean ± SEM
Protocol: as §3, §4

[5] = Radioactive metabolite analysis in tissues by radio-HPLC; conditions: mouse i.v., mean ± s.d., n = 3
Protocol: For metabolite analysis, radio-HPLC chromatograms were obtained using an Agilent 1100 system equipped with an in-line posiRAM metabolite detector (Lablogic, Sheffield, UK). The same column and mobile phase were used.
In female BALB/c mice at 5 and 30 min p.i. of [^18F]AlF-NOTA-EMP-105, four key tissues (blood plasma, liver, kidney and urine) were analysed for radioactive metabolites by radio-HPLC. The retention time of free [^18F]fluoride and the parent compound [^18F]AlF-EMP-105 were determined by injecting a pure sample of each onto the metabolite radio-HPLC system.
The liver and kidneys were excised, and homogenised in ice cold MeCN:H2O (1 mL, 1:2 v/v) using a Precellys tissue homogeniser fitted with a Cryolys cooling module (Stretton Scientific Ltd., Derbyshire, UK). The homogenate was centrifuged (13,000× g, 5 min), the supernatant was removed, filtered (0.22 µm syringe filter) and diluted in water prior to RP-HPLC analysis. Urine was diluted in water and filtered prior to HPLC analysis. Plasma was obtained from whole blood by centrifugation (2000× g, 10 min) to separate the blood cells from the plasma. Plasma were precipitated with ice cold MeCN:H2O (1 mL, 1:2 v/v), and centrifuged (13,000× g, 5 min) to pellet the proteins. The supernatant was filtered and diluted in water for radio-HPLC analysis. The HPLC injection loop was washed with MeCN:H2O 1:1 v/v (1 mL) and then 5:95 v/v (1 mL) between each injection. The extraction efficiency from each tissue sample was determined by counting the activity (counts per minute, CPM) of a small aliquot (20 µL) of the supernatant of a known volume and the whole protein pellet, in a γ-counter.

[6] = dynamic PET 60 min, TACs, healthy mice, i.v.
Protocol: Female BALB/c mice (6–8 weeks old) were anaesthetized with 2% isoflurane/O2. Imaging was performed using a Siemens Inveon small-animal multimodality PET/CT system (Siemens Medical Solutions USA, Inc., Knoxville, TN, USA). After completion of the CT scan, [^18F]AlF-EMP-105 (4.6 ± 1.2 MBq) was injected intravenously via the lateral tail vein. Dynamic emission scans were acquired in list-mode format for 60 min. Image data were processed as 0.5 mm sinogram bins and 33 time-frames, and reconstructed using the 2D-ordered subsets expectation maximization (2D-OSEM) algorithm with CT-based attenuation correction. The following frame durations were used: 12 × 5 s, 4 × 15 s, 6 × 30 s, and 11 × 300 s. Images were analysed using Inveon Research Workplace software (Siemens Healthcare Molecular Imaging, Knoxville, TN, USA). PET and CT images were co-registered and used to draw 3-dimensional regions of interests (ROIs) over tissues to obtain time–activity curves (TACs). Decay-corrected tissue time versus radioactivity curves (TACs) were generated and normalized to whole-body activity to obtain normalized uptake values (NUVs).

H1975 [7] = experiment: Flow cytometry uptake of EMI-137 (c-Met expression level); assay type: cell-based; conditions: 50 nM, 1 h, 37 °C
Protocol: as §3
(§5) Approximately 500,000 cells were seeded in 6-well plates and cultured for 24 h at 37 °C and 5% CO2. Cells were washed with warm PBS and incubated with 50 nM EMI-137 for 1 h at 37 °C and 5% CO2. Subsequently, cells were washed with ice-cold PBS three times prior to sample acquisition via FACS Canto flow cytometer (Becton Dickinson Immunocytometry Systems, Franklin Lakes, NJ, USA) with FACS Diva Software version 4.0.2. The obtained data were analysed using FlowJo software v7.6 (FlowJo, LLC, Ashland, OR, USA). Unstained controls were used to define gates and adjust fluorescence compensation.

HEPG2a [8] = experiment: as above; assay type: cell-based; conditions: HEPG2a (negative control), 50 nM, 1 h, 37 °C
Protocol: as §3, §5

HT29 [9] = experiment: as above; assay type: cell-based; conditions: 50 nM, 1 h, 37 °C
Protocol: as §3, §5

OE21 [10] = experiment: as above; assay type: cell-based; conditions: 50 nM, 1 h, 37 °C
Protocol: as §3, §5

H1975 cells = experiment: Internalisation assay of EMI-137 by flow cytometry; assay type: cell-based
Protocol: as §3
H1975 cells were seeded in a 6-well plate at a seeding density of 500,000 cells/well, 24 h prior to performing internalisation assay. […] Subsequently, cells were washed with ice-cold PBS three times. To determine internalisation levels at 4 °C, surface-bound EMI-137 was removed by washing the cells with 50 mM of glycine prepared in 150 mM NaCl (Sigma) for 5 min followed by three washes with ice-cold PBS. […] Data were presented as mean Fluorescence Intensity (MFI). The internalised fraction was determined by subtracting the surface-bound EMI-137 from total EMI-137. The percentage of internalised fraction was calculated by dividing the amount of internalised EMI-137 by total-bound EMI-137 multiplied by 100%. Unstained controls were used to define gates and adjust fluorescence compensation.

Compound: CC(=O)N[C@@H](C)C(=O)NCC(=O)N[C@@H](CO)C(=O)N[C@H]1CSSC[C@@H](C(=O)N[C@@H](Cc2ccc(O)cc2)C(=O)N[C@@H](CCC(=O)O)C(=O)N[C@H](C(=O)N[C@@H](CCC(=O)O)C(=O)NCC(=O)N[C@H](C(=O)NCC(=O)NCC(=O)NCC(=O)N[C@@H](CCCCNC(=O)CN2CCN(CC(=O)O)CCN(CC(=O)O)CC2)C(N)=O)[C@@H](C)O)[C@@H](C)O)NC(=O)[C@H](Cc2c[nH]c3ccccc23)NC(=O)[C@@H]2CSSC[C@H](NC(=O)[C@H](Cc3ccc(O)cc3)NC1=O)C(=O)N[C@@H](CO)C(=O)NCC(=O)N1CCC[C@H]1C(=O)N1CCC[C@H]1C(=O)N[C@@H](CCCNC(=N)N)C(=O)N[C@@H](Cc1ccccc1)C(=O)N[C@@H](CCC(=O)O)C(=O)N2 [[^18F]AlF-EMP-105] (Ac-AGSCYCSGPPRFECWCYETEGTGGGK(NOTA)-NH2; disulfide 4-16, 6-14)
- remaining at 1 h, 9.9 MBq/mL (physchem; EDTA (0.02% in 0.5 mM DPBS)): 99%
- remaining at 2 h, 9.9 MBq/mL (physchem; EDTA (0.02% in 0.5 mM DPBS)): 99%
- remaining at 3 h, 9.9 MBq/mL (physchem; EDTA (0.02% in 0.5 mM DPBS)): 98%
- remaining at 4 h, 9.9 MBq/mL (physchem; EDTA (0.02% in 0.5 mM DPBS)): 98%
- remaining at 1 h, 9.9 MBq/mL (physchem; PBS): 98%
- remaining at 2 h, 9.9 MBq/mL (physchem; PBS): 97%
- remaining at 3 h, 9.9 MBq/mL (physchem; PBS): 95%
- remaining at 4 h, 9.9 MBq/mL (physchem; PBS): 95%
- remaining at 1 h, 9.9 MBq/mL (physchem; RPMI media): 97%
- remaining at 2 h, 9.9 MBq/mL (physchem; RPMI media): 97%
- remaining at 3 h, 9.9 MBq/mL (physchem; RPMI media): 97%
- remaining at 4 h, 9.9 MBq/mL (physchem; RPMI media): 92%
- remaining at 1 h, 9.9 MBq/mL (in vitro): 99%
- remaining at 2 h, 9.9 MBq/mL (in vitro): 99%
- remaining at 3 h, 9.9 MBq/mL (in vitro): 98%
- remaining at 4 h, 9.9 MBq/mL (in vitro): 97%
- Change in radioactive uptake when blocked with 100-fold of EMI-137 (H1975 [1]): significant decrease; also recorded: statistically significant decreases
- Change in radioactive uptake when blocked with 100-fold of EMI-137 (HEPG2a [2]): not significant; also recorded: not observed
- Change in radioactive uptake when blocked with 100-fold of EMI-137 (HT29 [3]): significant decrease; also recorded: statistically significant decreases
- Change in radioactive uptake when blocked with 100-fold of EMI-137 (OE21 [4]): significant decrease; also recorded: statistically significant decreases
- Percentage of [^18F]AlF-EMP-105 Remaining ([5]; kidney, 5 min p.i.): 9.8 ± 12.9%
- Percentage of [^18F]AlF-EMP-105 Remaining ([5]; kidney, 30 min p.i.): 4.3 ± 4.3%
- Percentage of [^18F]AlF-EMP-105 Remaining ([5]; liver, 5 min p.i.): 6.2 ± 10.8%
- Percentage of [^18F]AlF-EMP-105 Remaining ([5]; liver, 30 min p.i.): 0.4 ± 0.7%
- Percentage of [^18F]AlF-EMP-105 Remaining ([5]; plasma, 5 min p.i.): 98.3 ± 1.1%
- Percentage of [^18F]AlF-EMP-105 Remaining ([5]; plasma, 30 min p.i.): 93.3 ± 7.4%
- Percentage of [^18F]AlF-EMP-105 Remaining ([5]; urine, 30 min p.i.): 7.9 ± 9.2%
- Time at which activity peaked, heart, lung and liver ([6]; heart, lung and liver): 1 min
- Time at which activity peaked, kidneys ([6]; kidneys): 2.5 min

Compound: AGSCYCSGPPRFECWCYETEGT-Cy5 (also: cyclic, ring closure not given here) [EMI-137]
- Fluorescent uptake of EMI-137 (H1975 [7]): High uptakes
- Fluorescent uptake of EMI-137 (HEPG2a [8]): low uptake
- Fluorescent uptake of EMI-137 (HT29 [9]): High uptakes
- Fluorescent uptake of EMI-137 (OE21 [10]): High uptakes
- Internalisation of EMI-137 (H1975 cells; 0, 5, 15 and 30 min at 37 °C after 30 min at 4 °C, glycine wash): increased with time
- Difference in uptake at 37 °C versus 4 °C (H1975 cells; 50 nM, 30 min): the difference was not significant
